{
  "source": "patent US20060172940",
  "molecular_target": "T1, synthetic full length mucocidin peptide (46-mer)",
  "T1 chain": "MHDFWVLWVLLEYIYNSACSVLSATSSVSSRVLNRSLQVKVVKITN",
  "data": [
    {"protein": "guinea pig liver transglutaminase (protein) AEDLILERCDLQLEVNGRDHRTADLCRERLVLRRGQPFWLTLHFEGRGYEAGVDTLTFNAVTGPDPSEEAGTMARFSLSSAVEGGTWSASAVDQQDSTVSLLLSTPADAPIGLYRLSLEASTGYQGSSFVLGHFILLYNPRCPADAVYMDSDQERQEYVLTQQGFIYQGSAKFINGIPWNFGQFEDGILDICLMLLDTNPKFLKNAGQDCSRRSRPVYVGRVVSAMVNCNDDQGVLQGRWDNNYSDGVSPMSWIGSVDILRRWKDYGCQRVKYGQCWVFAAVACTVLRCLGIPTRVVTNFNSAHDQNSNLLIEYFRNESGEIEGNKSEMIWNFHCWVESWMTRPDLEPGYEGWQALDPTPQEKSEGTYCCGPVPVRAIKEGHLNVKYDAPFVFAEVNADVVNWIRQKDGSLRKSINHLVVGLKISTKSVGRDEREDITHTYKYPEGSEEEREAFVRANHLNKLATKEEAQEETGVAMRIRVGQNMTMGSDFDIFAYITNGTAESHECQLLLCARIVSYNGVLGPVCSTNDLLNLTLDPFSENSIPLHILYEKYGDYLTESNLIKVRGLLIEPAANSYVLAERDIYLENPEIKIRVLGEPKQNRKLIAEVSLKNPLPVPLLGCIFTVEGAGLTKDQKSVEVPDPVEAGEQAKVRVDLLPTEVGLHKLVVNFECDKLKAVKGYRNVIIGPA", "values": [
      {"measurement": "Transglutaminase catalyzed monodansylcadaverine (MDC) incorporation into mucocidin", "result": "The time-dependent uptake of MDC into mucocidin (FIG. 4C) was detected only in the presence of Ca^++ but not in its absence"}
    ]}
  ]
}
